This experiment concerns the target streptavidin (UniProt P22629). Nature of the experiment: gel shift with streptavidin.
Chain of UniProt P22629 (P22629 37-163 limits assumed): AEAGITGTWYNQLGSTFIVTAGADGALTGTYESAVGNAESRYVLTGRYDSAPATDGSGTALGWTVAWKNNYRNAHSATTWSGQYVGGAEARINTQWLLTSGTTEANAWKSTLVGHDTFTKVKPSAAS

As for biotinylated SpyCatcher002 (S50C), the percent of protein biotinylated (shifted in the presence of streptavidin) stood at 90%.

The record behind these values is patent publication US20200407708A1.
